In paper doi:10.1101/2022.10.31.514592 (bioRxiv, 2022):

What was measured:
spike BA.1 Omicron-6P = spike BA.1 Omicron-6P (SARS-CoV-2, Omicron BA.1, strain, biotinylated (EZ-Link Sulfo-NHS-Biotin) for BLI); assay: ELISA
spike WT-6P [1] = molecular target: T1, spike WT-6P (SARS-CoV-2, wildtype (Wuhan-Hu-1 type), UniProt P0DTC2, stabilised, biotinylated (EZ-Link Sulfo-NHS-Biotin) for BLI); assay: BLI
spike WT-6P [2] = molecular target: T1, spike WT-6P; assay: ELISA

| Binder | fold increase of ELISA binding compared with spike BA.1-2P (spike BA.1 Omicron-6P) | binding result (spike WT-6P [1]) | binding result (spike WT-6P [2]) |
| --- | --- | --- | --- |
| S728-1157 IgG (antibody, V domains shown) VH: EVQLVESGGGLVQPGGSLRLSCAASGLLVSRNYMNWVRQAPGKGLEWVSIIYSGGSTFYADSVEGRFTISRDESKNTLYLQMNSLRTDDTAVYYCARDLSDYGGIDCWGQGTLVTVSS VL: ELTQPLSVSMALGQTARISCGGDNVGSQNVHWYQQRPGQAPVLVIYRDSNRPSGIPERFSGSKSGNTATLTISRAQAGDEADYYCQVWDSSTVAFGGGTKLTVL | > 3 fold | binds | – |
| S728-1157 Fab (Fab, V domains shown) VH: EVQLVESGGGLVQPGGSLRLSCAASGLLVSRNYMNWVRQAPGKGLEWVSIIYSGGSTFYADSVEGRFTISRDESKNTLYLQMNSLRTDDTAVYYCARDLSDYGGIDCWGQGTLVTVSS VL: ELTQPLSVSMALGQTARISCGGDNVGSQNVHWYQQRPGQAPVLVIYRDSNRPSGIPERFSGSKSGNTATLTISRAQAGDEADYYCQVWDSSTVAFGGGTKLTVL | – | binds | – |
| S451-1140 IgG (antibody, V domains shown) VH: EVQLVESGGGLVPPGGSLRLSCAASGFIFSNYAMTWVRQAPGKGLEWVSAISGGGGSTDYADSVKGRFTISRDNSKNTLYLQMNSLRAEDTAVYYCAKDLFGSGWSLFDNWGQGTLVTVSS VL: not shown | > 3 fold | binds | – |
| S451-1140 Fab (Fab, V domains shown) VH: EVQLVESGGGLVPPGGSLRLSCAASGFIFSNYAMTWVRQAPGKGLEWVSAISGGGGSTDYADSVKGRFTISRDNSKNTLYLQMNSLRAEDTAVYYCAKDLFGSGWSLFDNWGQGTLVTVSS VL: not shown | – | binds | – |
| S626-161 IgG (antibody, V domains shown) VH: QLQLQESGPGLVKPSEALSLTCTVSGGSISTSNYYWGWIRQPPGKGLEWIGSIYYRGGTHYNPSLKTRVTISVDTSKNQFSLKLSSVTAADTAVYYCARHTYFYDIVGAAVWEPFDIWGQGTMVTVSS VL: not shown | > 3 fold | – | binds |
| S626-161 Fab (Fab, V domains shown) VH: QLQLQESGPGLVKPSEALSLTCTVSGGSISTSNYYWGWIRQPPGKGLEWIGSIYYRGGTHYNPSLKTRVTISVDTSKNQFSLKLSSVTAADTAVYYCARHTYFYDIVGAAVWEPFDIWGQGTMVTVSS VL: not shown | – | binds | – |
